Data published in EP4806467A2.
Blank lines part the entries; values can stand above or below the molecule they belong to.

How the values were obtained:
[1] = target: ADAM9 on human tumour cells (LS174T, HepG2, Calu-3) (human) (UniProt Q13443); experiment: flow cytometry on LS174T cells, negative control, 0.003815 nM
[2] = target: ADAM9 on human tumour cells (LS174T, HepG2, Calu-3) (human) (UniProt Q13443); experiment: flow cytometry on HepG2 cells, negative control, 0.015259 nM
[3] = target: ADAM9 on human tumour cells (LS174T, HepG2, Calu-3) (human) (UniProt Q13443); experiment: flow cytometry on HepG2 cells, negative control, 0.244141 nM
[4] = target: ADAM9 on human tumour cells (LS174T, HepG2, Calu-3) (human) (UniProt Q13443); experiment: flow cytometry on LS174T cells, negative control, 0.000954 nM
[5] = target: ADAM9 on human tumour cells (LS174T, HepG2, Calu-3) (human) (UniProt Q13443); experiment: flow cytometry on HepG2 cells, negative control, 1000 nM
[6] = target: ADAM9 on human tumour cells (LS174T, HepG2, Calu-3) (human) (UniProt Q13443); experiment: flow cytometry on LS174T cells, negative control, 62.5 nM
[7] = target: ADAM9 on human tumour cells (LS174T, HepG2, Calu-3) (human) (UniProt Q13443); experiment: flow cytometry on LS174T cells, negative control, 0.976563 nM
[8] = target: ADAM9 on human tumour cells (LS174T, HepG2, Calu-3) (human) (UniProt Q13443); experiment: flow cytometry on LS174T cells, negative control, 0.244141 nM
[9] = target: ADAM9 on human tumour cells (LS174T, HepG2, Calu-3) (human) (UniProt Q13443); experiment: flow cytometry on LS174T cells, negative control, 3.906250 nM
[10] = target: ADAM9 on human tumour cells (LS174T, HepG2, Calu-3) (human) (UniProt Q13443); experiment: flow cytometry on HepG2 cells, negative control, 62.5 nM
[11] = target: ADAM9 on human tumour cells (LS174T, HepG2, Calu-3) (human) (UniProt Q13443); experiment: flow cytometry on HepG2 cells, negative control, 0.003815 nM
[12] = target: ADAM9 on human tumour cells (LS174T, HepG2, Calu-3) (human) (UniProt Q13443); experiment: flow cytometry on LS174T cells, negative control, 15.625 nM
[13] = target: ADAM9 on human tumour cells (LS174T, HepG2, Calu-3) (human) (UniProt Q13443); experiment: flow cytometry on LS174T cells, negative control, 0.061035 nM
[14] = target: ADAM9 on human tumour cells (LS174T, HepG2, Calu-3) (human) (UniProt Q13443); experiment: flow cytometry on HepG2 cells, negative control, 0.976563 nM
[15] = target: ADAM9 on human tumour cells (LS174T, HepG2, Calu-3) (human) (UniProt Q13443); experiment: flow cytometry on HepG2 cells, negative control, 0.000238 nM
[16] = target: ADAM9 on human tumour cells (LS174T, HepG2, Calu-3) (human) (UniProt Q13443); experiment: flow cytometry on LS174T cells, negative control, 0.015259 nM
[17] = target: ADAM9 on human tumour cells (LS174T, HepG2, Calu-3) (human) (UniProt Q13443); experiment: flow cytometry on HepG2 cells, negative control, 250 nM
[18] = target: ADAM9 on human tumour cells (LS174T, HepG2, Calu-3) (human) (UniProt Q13443); experiment: flow cytometry on HepG2 cells, negative control, 3.906250 nM
[19] = target: ADAM9 on human tumour cells (LS174T, HepG2, Calu-3) (human) (UniProt Q13443); experiment: flow cytometry on LS174T cells, negative control, 250 nM
[20] = target: ADAM9 on human tumour cells (LS174T, HepG2, Calu-3) (human) (UniProt Q13443); experiment: flow cytometry on HepG2 cells, negative control, 0.061035 nM
[21] = target: ADAM9 on human tumour cells (LS174T, HepG2, Calu-3) (human) (UniProt Q13443); experiment: flow cytometry on HepG2 cells, negative control, 15.625 nM
[22] = target: ADAM9 on human tumour cells (LS174T, HepG2, Calu-3) (human) (UniProt Q13443); experiment: flow cytometry on LS174T cells, negative control, 1000 nM
[23] = target: ADAM9 on human tumour cells (LS174T, HepG2, Calu-3) (human) (UniProt Q13443); experiment: flow cytometry on HepG2 cells, negative control, 0.000954 nM
[24] = target: ADAM9 on human tumour cells (LS174T, HepG2, Calu-3) (human) (UniProt Q13443); experiment: flow cytometry on HepG2 cells, 15.625 nM
[25] = target: ADAM9 on human tumour cells (LS174T, HepG2, Calu-3) (human) (UniProt Q13443); experiment: flow cytometry on HepG2 cells, 1000 nM
[26] = target: ADAM9 on human tumour cells (LS174T, HepG2, Calu-3) (human) (UniProt Q13443); experiment: flow cytometry on HepG2 cells, 0.000954 nM
[27] = target: ADAM9 on human tumour cells (LS174T, HepG2, Calu-3) (human) (UniProt Q13443); experiment: flow cytometry on HepG2 cells, 250 nM
[28] = target: ADAM9 on human tumour cells (LS174T, HepG2, Calu-3) (human) (UniProt Q13443); experiment: flow cytometry on HepG2 cells, 62.5 nM
[29] = target: ADAM9 on human tumour cells (LS174T, HepG2, Calu-3) (human) (UniProt Q13443); experiment: flow cytometry on HepG2 cells, 0.244141 nM
[30] = target: ADAM9 on human tumour cells (LS174T, HepG2, Calu-3) (human) (UniProt Q13443); experiment: flow cytometry on HepG2 cells, 0.976563 nM
[31] = target: ADAM9 on human tumour cells (LS174T, HepG2, Calu-3) (human) (UniProt Q13443); experiment: flow cytometry on HepG2 cells, 0.015259 nM
[32] = target: ADAM9 on human tumour cells (LS174T, HepG2, Calu-3) (human) (UniProt Q13443); experiment: flow cytometry on HepG2 cells, 0.000238 nM
[33] = target: ADAM9 on human tumour cells (LS174T, HepG2, Calu-3) (human) (UniProt Q13443); experiment: flow cytometry on HepG2 cells, 0.061035 nM
[34] = target: ADAM9 on human tumour cells (LS174T, HepG2, Calu-3) (human) (UniProt Q13443); experiment: flow cytometry on HepG2 cells, 3.906250 nM
[35] = target: ADAM9 on human tumour cells (LS174T, HepG2, Calu-3) (human) (UniProt Q13443); experiment: flow cytometry on HepG2 cells, 0.003815 nM
[36] = target: ADAM9 on human tumour cells (LS174T, HepG2, Calu-3) (human) (UniProt Q13443); experiment: flow cytometry on LS174T cells, 0.003815 nM
[37] = target: ADAM9 on human tumour cells (LS174T, HepG2, Calu-3) (human) (UniProt Q13443); experiment: flow cytometry on LS174T cells, 62.5 nM
[38] = target: ADAM9 on human tumour cells (LS174T, HepG2, Calu-3) (human) (UniProt Q13443); experiment: flow cytometry on LS174T cells, 0.061035 nM
[39] = target: ADAM9 on human tumour cells (LS174T, HepG2, Calu-3) (human) (UniProt Q13443); experiment: flow cytometry on LS174T cells, 250 nM
[40] = target: ADAM9 on human tumour cells (LS174T, HepG2, Calu-3) (human) (UniProt Q13443); experiment: flow cytometry on LS174T cells, 0.000954 nM
[41] = target: ADAM9 on human tumour cells (LS174T, HepG2, Calu-3) (human) (UniProt Q13443); experiment: flow cytometry on LS174T cells, 3.906250 nM
[42] = target: ADAM9 on human tumour cells (LS174T, HepG2, Calu-3) (human) (UniProt Q13443); experiment: flow cytometry on LS174T cells, 15.625 nM
[43] = target: ADAM9 on human tumour cells (LS174T, HepG2, Calu-3) (human) (UniProt Q13443); experiment: flow cytometry on LS174T cells, 0.015259 nM
[44] = target: ADAM9 on human tumour cells (LS174T, HepG2, Calu-3) (human) (UniProt Q13443); experiment: flow cytometry on LS174T cells, 1000 nM
[45] = target: ADAM9 on human tumour cells (LS174T, HepG2, Calu-3) (human) (UniProt Q13443); experiment: flow cytometry on LS174T cells, 0.244141 nM
[46] = target: ADAM9 on human tumour cells (LS174T, HepG2, Calu-3) (human) (UniProt Q13443); experiment: flow cytometry on LS174T cells, 0.976563 nM

Chain of ADAM9 on human tumour cells (LS174T, HepG2, Calu-3) (human) (Q13443 29-819): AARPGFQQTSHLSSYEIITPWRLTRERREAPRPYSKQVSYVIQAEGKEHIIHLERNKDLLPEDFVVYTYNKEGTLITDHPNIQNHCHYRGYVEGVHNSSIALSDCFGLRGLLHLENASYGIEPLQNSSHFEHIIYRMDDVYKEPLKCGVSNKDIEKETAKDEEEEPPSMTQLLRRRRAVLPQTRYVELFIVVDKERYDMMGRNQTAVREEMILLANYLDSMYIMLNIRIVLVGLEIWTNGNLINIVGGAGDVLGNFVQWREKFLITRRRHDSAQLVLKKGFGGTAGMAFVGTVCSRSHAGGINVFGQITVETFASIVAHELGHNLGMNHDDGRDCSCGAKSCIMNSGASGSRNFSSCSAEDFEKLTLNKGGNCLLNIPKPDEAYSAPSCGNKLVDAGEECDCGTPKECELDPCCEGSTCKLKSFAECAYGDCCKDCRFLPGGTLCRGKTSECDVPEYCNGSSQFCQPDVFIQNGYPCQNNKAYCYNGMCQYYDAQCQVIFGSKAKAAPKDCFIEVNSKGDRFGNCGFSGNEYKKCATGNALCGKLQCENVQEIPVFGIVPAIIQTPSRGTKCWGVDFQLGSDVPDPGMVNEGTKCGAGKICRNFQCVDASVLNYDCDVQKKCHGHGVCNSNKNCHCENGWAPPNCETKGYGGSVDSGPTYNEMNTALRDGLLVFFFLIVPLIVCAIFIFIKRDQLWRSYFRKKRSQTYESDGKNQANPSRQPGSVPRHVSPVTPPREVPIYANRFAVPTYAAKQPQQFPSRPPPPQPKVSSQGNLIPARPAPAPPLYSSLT

Molecule: anti-HIV human IgG antibody (iso-IgG1, produced by WuXi AppTec)
Mean fluorescence intensity [1]: 254 MFI | Mean fluorescence intensity (MFI) [2]: 371 MFI | Mean fluorescence intensity (MFI) [3]: 363 MFI | Mean fluorescence intensity [4]: 220 MFI | Mean fluorescence intensity (MFI) [5]: 690 MFI | Mean fluorescence intensity [6]: 229 MFI | Mean fluorescence intensity [7]: 212 MFI | Mean fluorescence intensity [8]: 208 MFI | Mean fluorescence intensity [9]: 203 MFI | Mean fluorescence intensity (MFI) [10]: 386 MFI | Mean fluorescence intensity (MFI) [11]: 349 MFI | Mean fluorescence intensity [12]: 209 MFI | Mean fluorescence intensity [13]: 202 MFI | Mean fluorescence intensity (MFI) [14]: 360 MFI | Mean fluorescence intensity (MFI) [15]: 361 MFI | Mean fluorescence intensity [16]: 213 MFI | Mean fluorescence intensity (MFI) [17]: 389 MFI | Mean fluorescence intensity (MFI) [18]: 361 MFI | Mean fluorescence intensity [19]: 269 MFI | Mean fluorescence intensity (MFI) [20]: 377 MFI | Mean fluorescence intensity (MFI) [21]: 364 MFI | Mean fluorescence intensity [22]: 368 MFI | Mean fluorescence intensity (MFI) [23]: 365 MFI

Mean fluorescence intensity (MFI) [24]: 2960 MFI | Mean fluorescence intensity (MFI) [25]: 17400 MFI | Mean fluorescence intensity (MFI) [26]: 376 MFI | Mean fluorescence intensity (MFI) [27]: 16600 MFI | Mean fluorescence intensity (MFI) [28]: 3290 MFI | Mean fluorescence intensity (MFI) [29]: 1090 MFI | Mean fluorescence intensity (MFI) [30]: 1790 MFI | Mean fluorescence intensity (MFI) [31]: 451 MFI | Mean fluorescence intensity (MFI) [32]: 370 MFI | Mean fluorescence intensity (MFI) [33]: 623 MFI | Mean fluorescence intensity (MFI) [34]: 1780 MFI | Mean fluorescence intensity (MFI) [35]: 396 MFI
B1: Ab16-X1 (antibody, human IgG1, kappa, V domains shown)
VH: QVQLQQPGTEVVKPGASVKLSCKASGFTFPLYWMHWVRQRPGRGLEWIGRIIPIFGHTKYNEKFKNKATLTADESSSTAYMELRSLTSDDSAVYYCARGGYYYYPREGFLDYWGQGTSVTVSS
VL: DIVMTQSPASLSVSPGERASISCRSSQSVDYSGDSYMNWYQQKPGQSPRLLIYAASDRESGVPDRFSGSGSGTDFTLKISRVEEEDAGTYYCQQSREDPFTFGQGTKVDIKR
modifications: linker-payload X1 (camptothecin derivative) conjugated after TCEP reduction; DAR p = 7.8 for the whole antibody; positions not given

Mean fluorescence intensity [36]: 219 MFI | Mean fluorescence intensity [37]: 2160 MFI | Mean fluorescence intensity [38]: 447 MFI | Mean fluorescence intensity [39]: 2130 MFI | Mean fluorescence intensity [40]: 223 MFI | Mean fluorescence intensity [41]: 2380 MFI | Mean fluorescence intensity [42]: 2400 MFI | Mean fluorescence intensity [43]: 268 MFI | Mean fluorescence intensity [44]: 1130 MFI | Mean fluorescence intensity [45]: 954 MFI | Mean fluorescence intensity [46]: 1960 MFI
B2: Ab16-X2 (antibody, human IgG1, kappa, V domains shown)
VH: B1 VH
VL: B1 VL
modifications: linker-payload X2 (camptothecin derivative) conjugated after TCEP reduction; DAR p = 7.9 for the whole antibody; positions not given
